Measurements from US20170121416A1 (AbbVie / Abbott, published 2017).
Where two headings read alike, the source gives them in different places.

T1: human CD324 on cells (MCF7, BR22, NTX tumor cells, 293-hCD324) (human, UniProt P12830 155-882)
T1 sequence: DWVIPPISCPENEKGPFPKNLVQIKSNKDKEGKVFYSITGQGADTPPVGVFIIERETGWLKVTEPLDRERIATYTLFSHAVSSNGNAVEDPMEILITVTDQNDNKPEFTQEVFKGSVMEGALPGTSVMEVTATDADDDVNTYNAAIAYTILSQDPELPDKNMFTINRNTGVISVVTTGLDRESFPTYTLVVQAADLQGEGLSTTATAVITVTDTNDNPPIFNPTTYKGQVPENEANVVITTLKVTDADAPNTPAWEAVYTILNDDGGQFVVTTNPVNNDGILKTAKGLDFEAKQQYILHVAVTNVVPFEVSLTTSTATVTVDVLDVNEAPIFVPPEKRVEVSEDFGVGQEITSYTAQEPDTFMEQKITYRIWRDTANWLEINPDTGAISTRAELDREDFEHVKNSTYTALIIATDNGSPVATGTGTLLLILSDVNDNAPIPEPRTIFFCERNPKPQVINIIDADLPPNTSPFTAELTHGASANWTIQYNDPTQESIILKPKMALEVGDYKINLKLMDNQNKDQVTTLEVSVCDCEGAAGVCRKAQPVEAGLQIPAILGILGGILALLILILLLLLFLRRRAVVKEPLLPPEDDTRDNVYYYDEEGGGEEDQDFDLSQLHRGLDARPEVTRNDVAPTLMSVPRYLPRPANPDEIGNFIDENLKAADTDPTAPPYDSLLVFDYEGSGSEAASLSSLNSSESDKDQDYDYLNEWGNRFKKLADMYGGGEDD

T2: mouse CD324 (Sino Biologics) (mouse, UniProt P09803 157-709, limits assumed)
T2 construct: bought recombinant protein coated on the ELISA plate; also called murine CD324; mouse homolog
T2 sequence (looked up): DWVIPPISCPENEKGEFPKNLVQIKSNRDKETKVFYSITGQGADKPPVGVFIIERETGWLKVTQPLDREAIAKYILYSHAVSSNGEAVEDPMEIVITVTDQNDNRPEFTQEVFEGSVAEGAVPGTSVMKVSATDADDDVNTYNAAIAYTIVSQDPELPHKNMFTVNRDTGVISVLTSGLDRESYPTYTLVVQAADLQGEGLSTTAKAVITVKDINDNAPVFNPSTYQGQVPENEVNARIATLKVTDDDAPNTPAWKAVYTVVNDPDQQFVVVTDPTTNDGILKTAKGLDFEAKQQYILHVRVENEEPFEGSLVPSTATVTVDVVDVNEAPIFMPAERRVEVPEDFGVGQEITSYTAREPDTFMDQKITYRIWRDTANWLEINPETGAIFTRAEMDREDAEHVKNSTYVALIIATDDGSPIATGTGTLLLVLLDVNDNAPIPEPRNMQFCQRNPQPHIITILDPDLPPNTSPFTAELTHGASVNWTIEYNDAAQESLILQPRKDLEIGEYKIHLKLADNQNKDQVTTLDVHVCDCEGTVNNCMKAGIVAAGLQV

T3: human CD324-His recombinant protein (Sino Biological, Inc.) (human, UniProt P12830 155-709)
T3 construct: bought soluble protein; The antigen of the Biacore experiment is only called human CD324 antigen; also called hCD324-His; human CD324 antigen; not shown: His tag
T3 sequence: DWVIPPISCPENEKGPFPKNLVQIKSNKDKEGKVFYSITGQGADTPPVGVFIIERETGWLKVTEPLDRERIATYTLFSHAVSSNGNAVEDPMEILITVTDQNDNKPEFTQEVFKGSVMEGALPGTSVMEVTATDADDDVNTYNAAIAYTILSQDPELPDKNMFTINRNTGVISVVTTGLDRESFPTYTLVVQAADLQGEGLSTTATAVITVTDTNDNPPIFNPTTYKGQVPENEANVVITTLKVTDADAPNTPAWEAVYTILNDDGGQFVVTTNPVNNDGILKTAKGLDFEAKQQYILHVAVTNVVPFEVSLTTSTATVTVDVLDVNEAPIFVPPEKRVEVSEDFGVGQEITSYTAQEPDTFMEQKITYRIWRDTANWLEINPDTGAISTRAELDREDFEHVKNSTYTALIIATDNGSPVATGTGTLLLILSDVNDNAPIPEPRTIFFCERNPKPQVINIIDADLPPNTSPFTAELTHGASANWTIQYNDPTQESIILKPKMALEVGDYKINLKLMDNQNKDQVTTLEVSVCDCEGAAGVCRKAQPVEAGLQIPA


Assays:
[1] = molecular target: T1, human CD324 on cells (MCF7, BR22, NTX …); assay: cell-based or functional assay
[2] = molecular target: T1, human CD324 on cells (MCF7, BR22, NTX …); assay: cell-based or functional assay; remark: listed apart in the source
[3] = molecular target: T1, human CD324 on cells (MCF7, BR22, NTX …); assay: cell-based or functional assay; remark: listed apart in the source
[4] = molecular target: T1, human CD324 on cells (MCF7, BR22, NTX …); assay: cell-based or functional assay; remark: listed apart in the source
[5] = molecular target: T1, human CD324 on cells (MCF7, BR22, NTX …); assay: cell-based or functional assay; remark: listed apart in the source
[6] = molecular target: T2, mouse CD324 (Sino Biologics); assay: direct ELISA on plate-coated mouse CD324 (Example 7, paragraph 375; paragraph 370 names ForteBio)
Experimental: To test cross-reactivity a high protein binding 96-well assay plate was coated with 0.5 μg/ml of a mouse CD324 purchased from Sino Biologics. The protein coating of the plate occurred in 100 μl volume per well using a 50 mM Sodium Carbonate buffer (pH9.6) during a 16 hour incubation at 4° C. After washing the coated plate in PBS buffer containing 0.05% Tween20 (PBST) the plate was then clocked washed with PBST and 100 μL/well PBSA containing 10% spent hybridoma supernatant or 1 μg/ml purified monoclonal antibody (as positive control) was added to the plate for the duration of 1 hour at ambient temperature. After washing the plate with PBST, 100 μL per well of PBSA containing a 1:10,000 dilution of goat anti-mouse IgG polyclonal antibody, specific for the Fc portion of Mouse IgG and conjugated to horseradish peroxidase (Jackson Immuno Research), was added to the plate for 30 minutes at ambient temperature. After washing the plate extensively with PBST, 100 μL per well TMB substrate (Thermo Fisher) was added to the wells for 15 minutes. The enzymatic reaction was stopped by adding 100 μL/well 2M sulfuric acid. The absorbance of this colorimetric assay was measured at 450 nm using a Victor plate reader (Perkin Elmer). In this assay a signal above background was indicative of cross-reactivity.

[7] = molecular target: T3, human CD324-His recombinant protein …; assay: SPR (Biacore), concentration series 25, 12.5 and 6.25 nM, 1:1 Langmuir binding model; murine parent antibody
[8] = molecular target: T1, human CD324 on cells (MCF7, BR22, NTX …); assay: cell-based or functional assay; remark: listed apart in the source

Row | Normalized RLU at 10pM (MCF7, Fab-saporin) [1] | Normalized RLU at 100pM (MCF7, Fab-saporin) [1] | EC50 (read off the curve) [3] [pM] | Percent live cells remaining at 10pM (MCF7, Fab-saporin) [4] [%] | binding result [6] | Kd [7] [pM] | Binder | EC50 (MCF7, Fab-saporin killing) [2] [pM] | EC50 of killing of MCF7 cells, Fab-saporin assay [5] [pM] | EC50 (MCF7, Fab-saporin killing) [8] [pM]
1 | 37.2 | 19.4 | ~0.6 | – | – | – | SC10.35 (antibody, V domains shown) VH: SDVQLQESGPGLVKPSQSLSLTCTVTDYSITSDYAWNWIRQFPGNNLEWMGNIGYSGDTSYNPSLKSRISITRDTSKNQFFLQLNSVTTEDSATYYCARSSLGPFDYWGQGTALTVSS VL: QIVLTQSPAIMSASPGERVTLTCSASSSVSSSFLYWYQQKSGSSPKLWIYSTSTLASGVPARFSGSGSGTSYSLTISSMEAEDAASYFCHQWSSYPWTFGGGTKLEIK | 0.71 | – | –
2 | – | – | – | 32 | no binding | 2000 | SC10.17 (antibody, V domains shown, murine monoclonal antibody from hybridoma; also called murine SC10.17; mAb SC10.17) VH: DVQLVESGGGLVQPGGSRKLSCAASGFTFSSYGMHWVRQAPETGLEWVAYITTRSSTIYYAATVKGRFTISRDNARNTLFLQMTSLRSEDTAMYYCTREPLTGYYAMDYWGQGTSVTVSS VL: DVLMTQTPLSLPVSLGDQASISCRSSQSIVHSDGNTYLEWYLRKPGQSPRLLIYKVSNRFSGVPDRFSGSGSGTDFTLKISRVEAEDLGVYYCFQGSHAPWTFGGGTKLEIK | 0.13 | 1.2 | 1.22
3 | 102 | 106 | – | – | – | – | SC10.38 (antibody, V domains shown) VH: QVQLQQSGAELMKTGASVKISCKATGYTFSSYWIEWVKQRPGHGLEWIGEILPGSGKTNYNENFKGKATFTADTSSNTAYMQLSSLTSEDSVVYYCARRGAYYGNFDYWGQGTTLTVSS VL: DIQMNQSPSSLSASLGDTITITCHVSQNINVWLTWYQQKPGNIPKLLLYKASNLQTGVPSRFSGSGSGTGFTLTISSLQPEDIATYYCQQGQSYPFTFGSGTK | – | – | –
4 | 40.7 | 21.2 | – | – | – | – | SC10.36 (antibody, V domains shown) VH: QVQLQQSGNELVRPGSAVKISCKASGYAFSSYWMNWVKQRPGQGLEWIGQIYPGDDDSNYNGKFKGKATLTADKSSSSAYMHLSSLTSEDSAVYFCARGFATPTMDYWGQGTSVTVSS VL: not shown | – | – | –
5 | 91.5 | 90.3 | – | – | – | – | SC10.163 (antibody, V domains shown) VH: EVQLQQSGPELVKPGDSVKMSCKASGNTVTNYYMDWVKQSHGKSLEWIGYIYANNGGTSYNQKFKGKATLTVDKSSSTAYMEIHSLTSEDSAVYYCAIYYRYEFAYWGQGTLVTVSA VL: DIVMTQAAFSNPVTLGTSASISCRSSKSLLHSNGITYLYWYLQKPGQSPQLLIYQMSNLASGVPDRFSNSGSGTDFTLRISRVEAEDVGVYYCAQNLELPWTFGGGTKLEIK | – | – | –
6 | 64.8 | 34 | – | – | – | – | SC10.168 (antibody, V domains shown) VH: SDVQLQESGPGLVKPSQSLSVTCTVTDYSLTSGYYWNWIRQFPGNKLEWMAYIHSSGSTHYNPSLKSRISVTRDTSKNQFFLQLNSVTTEDTATYYCARDGAYYSSWFPYWGQGTLVTVSA VL: DIVMTQSHKLMSASVGDRVSITCKASQDVGTAVAWYQQKPGRSPKLLIYWASNRHTGVPDRFTGSGSGTDFTLTISNVQSEDLADYFCQQFGSYPYTFGGGTKLEIKR | – | – | –
7 | 68 | 38.1 | – | 68 | – | – | SC10.178 (antibody, V domains shown) VH: QILLVQSGPELKKPGETVKISCKANYTFTDYGMHWVKQAPGKGLKWMGWINPKTGVASYADDFKGRFAFSLETSASTAYLQINNLENEDTSIYFCARFFDYWGQGTTLTVSS VL: DIVLTQSPLSLLVSLGDQASISCRSSQSLVHSNGNTYLHWYLQKPGQSPNLLIFKVSNRFSGVPDRFSGSGSGTDFTLRISRVEAEDLGVYFCSQTTHVWTFGGGTKLEIK | 3.1 | – | –
8 | 101 | 98.8 | – | 101 | no binding | – | SC10.75 (antibody, V domains shown, murine mAb; variable regions only) VH: QVQLKESGPGLVAPSQSLSITCTVTGFSLSRYSVHWIRQPPGKGLEWLGMIWGGGSTDYNSALKSRLSINKDNSKSQVFLKMNSLQTVDTAMYYCARTQFYYGHDGGYAMDYWGQGTSVTVSS VL: DIVMSQSPSSLAVSVGEKVTMSCKSSQSLLYSNNQKNYLAWYQQKPGQSPKLLIYWASSRESGVPERFTGSGSGTDFTLTISSVKAEDLAVYYCQQYYSSPYTFGGGTKLK | – | – | –
